According to patent publication US20130316404A1:

Molecular target: IL-10 receptor (IL-10R) on mouse splenocytes (mouse) (UniProt Q61727)
Experiment: cell-based or functional assay

Chain of UniProt Q61727 (Q61727 17-575): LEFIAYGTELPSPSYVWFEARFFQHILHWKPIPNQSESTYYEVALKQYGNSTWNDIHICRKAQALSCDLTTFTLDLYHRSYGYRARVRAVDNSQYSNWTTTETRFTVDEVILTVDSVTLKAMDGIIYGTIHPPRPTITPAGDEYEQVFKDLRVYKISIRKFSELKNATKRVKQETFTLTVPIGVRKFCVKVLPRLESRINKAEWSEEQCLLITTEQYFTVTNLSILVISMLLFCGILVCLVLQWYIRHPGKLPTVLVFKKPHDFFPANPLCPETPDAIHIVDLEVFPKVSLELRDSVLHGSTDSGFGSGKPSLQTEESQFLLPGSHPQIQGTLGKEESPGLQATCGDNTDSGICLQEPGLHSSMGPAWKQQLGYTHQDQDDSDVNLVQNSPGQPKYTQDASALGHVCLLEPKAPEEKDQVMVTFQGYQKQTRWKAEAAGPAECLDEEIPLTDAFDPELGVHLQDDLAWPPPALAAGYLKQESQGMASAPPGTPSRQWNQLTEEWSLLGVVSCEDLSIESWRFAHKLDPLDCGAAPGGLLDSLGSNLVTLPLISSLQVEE

Substance: recombinant wildtype mouse IL-10 expressed in human HEK293 cells (from UniProt P18893 19-178) (ligand)
- STAT3 phosphorylation in mouse splenocytes (Western blot), concentration giving equal signal: 100 ng/mL

Substance: stabilized recombinant IL-10 dimer (two wildtype murine IL-10 monomers joined C-terminus to N-terminus by a 7 amino acid peptide linker, one continuous polypeptide) (from UniProt P18893 19-178) (ligand)
- STAT3 phosphorylation in mouse splenocytes (Western blot), concentration giving equal signal: 10 ng/mL
